Biological target: T1, V5-tagged PTPRS (UniProt B0V2N1 30-1907)
T1 construct: Receptor-type tyrosine-protein phosphatase S; cDNA GenBank BC083188.1; also called PTPRSV5; source: tsA201 cells, transfected, CL-91-solubilised membrane fraction; not shown: V5, C-terminal, kept
Assay: affinity purification with mass spectrometry; anti-V5 APs from tsA201 cells expressing NRX1A and PTPRS-V5 with or without T178B; normalized abundance of NRX1A by MS, two independent APs with two controls
Conditions: partners not purified

T1 sequence (B0V2N1 30-1907): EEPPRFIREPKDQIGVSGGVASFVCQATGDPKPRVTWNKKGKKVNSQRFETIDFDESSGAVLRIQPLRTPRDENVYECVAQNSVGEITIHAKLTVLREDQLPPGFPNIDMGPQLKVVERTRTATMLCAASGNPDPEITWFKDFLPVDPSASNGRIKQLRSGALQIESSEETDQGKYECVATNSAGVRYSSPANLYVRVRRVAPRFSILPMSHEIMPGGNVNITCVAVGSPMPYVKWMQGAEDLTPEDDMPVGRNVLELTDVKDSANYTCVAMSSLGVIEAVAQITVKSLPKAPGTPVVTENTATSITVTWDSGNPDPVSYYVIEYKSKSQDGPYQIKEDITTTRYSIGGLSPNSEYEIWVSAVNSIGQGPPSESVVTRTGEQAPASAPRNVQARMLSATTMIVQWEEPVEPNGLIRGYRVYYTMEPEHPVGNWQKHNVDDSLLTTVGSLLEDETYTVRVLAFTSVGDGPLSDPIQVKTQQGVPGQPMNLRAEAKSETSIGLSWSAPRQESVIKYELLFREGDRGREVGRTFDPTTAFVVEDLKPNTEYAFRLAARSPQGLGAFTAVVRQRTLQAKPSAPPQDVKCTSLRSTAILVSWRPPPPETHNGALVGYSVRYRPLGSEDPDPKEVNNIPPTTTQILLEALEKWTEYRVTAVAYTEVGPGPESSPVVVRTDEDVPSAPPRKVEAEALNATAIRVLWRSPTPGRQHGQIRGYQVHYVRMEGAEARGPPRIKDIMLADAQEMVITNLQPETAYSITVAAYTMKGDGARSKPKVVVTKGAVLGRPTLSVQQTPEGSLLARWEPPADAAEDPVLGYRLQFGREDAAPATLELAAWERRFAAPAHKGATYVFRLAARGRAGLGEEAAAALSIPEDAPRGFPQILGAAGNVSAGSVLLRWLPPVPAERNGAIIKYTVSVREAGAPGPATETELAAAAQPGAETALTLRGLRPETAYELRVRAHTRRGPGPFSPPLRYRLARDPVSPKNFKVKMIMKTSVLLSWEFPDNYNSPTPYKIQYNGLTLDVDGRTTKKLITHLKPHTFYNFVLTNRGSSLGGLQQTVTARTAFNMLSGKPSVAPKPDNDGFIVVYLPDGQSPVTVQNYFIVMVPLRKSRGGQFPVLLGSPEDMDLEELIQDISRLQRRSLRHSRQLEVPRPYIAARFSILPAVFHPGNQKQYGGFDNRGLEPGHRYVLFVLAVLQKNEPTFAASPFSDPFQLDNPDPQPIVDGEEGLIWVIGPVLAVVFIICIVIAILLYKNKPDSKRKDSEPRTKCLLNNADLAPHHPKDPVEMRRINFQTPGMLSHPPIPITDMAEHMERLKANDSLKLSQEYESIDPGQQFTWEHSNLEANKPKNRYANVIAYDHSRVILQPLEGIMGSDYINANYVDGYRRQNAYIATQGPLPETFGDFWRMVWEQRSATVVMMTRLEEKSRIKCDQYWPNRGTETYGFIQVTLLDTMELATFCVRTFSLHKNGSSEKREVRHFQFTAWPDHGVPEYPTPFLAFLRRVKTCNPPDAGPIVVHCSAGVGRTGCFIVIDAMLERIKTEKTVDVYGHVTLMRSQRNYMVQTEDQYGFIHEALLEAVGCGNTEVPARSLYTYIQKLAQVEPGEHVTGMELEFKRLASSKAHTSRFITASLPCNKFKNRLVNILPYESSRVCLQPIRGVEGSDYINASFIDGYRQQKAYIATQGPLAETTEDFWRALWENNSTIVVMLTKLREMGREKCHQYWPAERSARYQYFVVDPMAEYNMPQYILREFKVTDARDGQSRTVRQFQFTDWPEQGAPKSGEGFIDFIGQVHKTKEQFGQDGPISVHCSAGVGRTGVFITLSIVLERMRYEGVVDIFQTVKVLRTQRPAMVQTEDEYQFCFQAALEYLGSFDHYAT

B1: HA-tagged NRX1A (natural protein)
chain: not shown
notes: Neurexin-1-alpha; in pCAG, from Addgene (#58622); also called NRX1A-HA; source: tsA201 cells, transfected, CL-91-solubilised membrane fraction
- fold increase of the interaction with T178B against pairwise expression without T178B: 10 fold
